From US20240026407A1, “MODIFICATION OF SAPONINS” (GLAXOSMITHKLINE BIOLOGICALS SA, priority 2020, published 2024)

What was measured:
Format in all cases: biochemical, Quillaja saponaria
[1] = Experiment 6-1: screening of rhamnosidases for derhamnosylation of saponins in treated bark extract (2%), QS-17 2296 to QS-18 2150 (PAR %); settings: TBE 2%, pH 7.5, 30 degC, 18 h; TIC peak area ratio percent of rhamnosylated starting saponin to derhamnosylated product, LCMS/MS; negative controls 4.876, 5.225
[2] = Experiment 6-1: screening of rhamnosidases for derhamnosylation of saponins in treated bark extract (2%), desglucosyl-QS-17 2134 to QS-21 1988 (PAR %); settings: TBE 2%, pH 7.5, 30 degC, 18 h; TIC peak area ratio percent, LCMS/MS; negative controls 2.719, 2.158
[3] = Experiment 6-1: screening of rhamnosidases for derhamnosylation of saponins in treated bark extract (2%), QS-17 2310 to QS-18 2164 (PAR %); settings: TBE 2%, pH 7.5, 30 degC, 18 h; TIC peak area ratio percent, LCMS/MS; negative controls 3.061, 2.429
[4] = Experiment 6-2: screening of rhamnosidases for derhamnosylation of saponins in treated bark extract (25%), relative % of Left, Middle and Right Peak by UV HPLC; settings: TBE 25%, pH 7.4, 19.5 h; for Left Peak: mainly QS-17 family, negative control 24%; for Middle Peak: mainly QS-18 and desglucosyl-QS-17 family, negative control 50%; for Right Peak: mainly QS-21 family, negative control 26%
[5] = Experiment 6-3: screening of rhamnosidases for derhamnosylation of saponins in crude bark extract (80%), relative % of Left, Middle and Right Peak by UV HPLC; settings: CBE 80%, pH 7.4, 30 degC, 19.5 h; for Left Peak: mainly QS-17 family, negative control 27%; for Middle Peak: mainly QS-18 and desglucosyl-QS-17 family, negative control 48%; for Right Peak: mainly QS-21 family, negative control 26%
Experimental: Selected variants were expressed and lysed as in the method of experiment 6-1.
Crude bark extract (CBE) solution was adjusted to pH 7.4 by addition of NaOH (2M). 20 uL clarified lysate was transferred into fresh 96 well PCR plates. 80 uL CBE solution (pH 7.4) was added to each well of lysate to a final concentration of 80%. Plates were incubated at 30 degC with shaking for 19.5 h.
Quenched with 100 uL MeCN+2% AcOH and shaken at room temperature for 10 mins prior to centrifugation (10 min, 4 degC) to remove particulates. Samples were analysed by UV HPLC using method of Experiment 4-4.
Three key peaks of interest are apparent using this chromatography: Left Peak (retention time approximately 2.30-2.35 min) comprising mainly QS-17 family components; Middle Peak (retention time approximately 2.37-2.42 min) comprising mainly QS-18 family components and desglucosyl-QS-17 family components; and Right Peak (retention time approximately 2.44-2.50 min) comprising mainly QS-21 family components. Peak identity was supported by MS/MS.
Enzyme mediated hydrolysis of the alpha-O-rhamnosylation at the C2 position of the arabinofuranose moiety of QS-17 family components leads to a decrease in Left Peak and an increase in Middle Peak due to formation of QS-18 family components. Enzyme mediated hydrolysis of the alpha-O-rhamnosylation at the C2 position of the arabinofuranose moiety of desglucosyl-QS-17 family components leads to a decrease in Middle Peak and an increase in Right Peak due to formation of QS-21 family components.
The relative percentage of each peak was determined. A decrease in Left Peak and a concomitant increase in Middle Peak and Right Peak is observed for enzymes active under these conditions.

[6] = Experiment 6-1: specificity of rhamnosidases towards other rhamnose residues (C3 saccharide rhamnose, C28 saccharide rhamnose); settings: TBE 2%, pH 7.5, 30 degC, 18 h; LCMS/MS; negative controls 0.18, 0.17

Row | Molecule | QS-17 (PAR %) [1] [%] | Peak75 (PAR %) [2] [%] | Peak57 (PAR %) [3] [%] | Left Peak [4] [%] | Middle Peak [4] [%] | Right Peak [4] [%] | Left Peak [5] [%] | Middle Peak [5] [%] | Right Peak [5] [%] | ratio PP/QS-21 [6]
1 | 1001 (protein, listed as Brachybacterium faecium) MNSAPASPADTPSAGAGRPAAQLQDALAITAVEDTGRLPQLVHTVTLAQPRDQVRRAELLATAHGLYEMRIGGAPATESVLNPGWTTYERRLQVQRLDVTAQVRQRPEGLAAADADRLDLEATLADGWWRGDLGFDGGVRYGDDLALLAAVEIEFADGTRQRVVTDESWRSRPSAIMSANIYHGQHEDRRLGLGPETPVRVVEIDRSTLVEQVSPPVLRHESRRPERIWTSPAGRTLVDFGQNLVGWLRFTVTGPEGTEIVLRHAEVLEDGELGTRPLRAARATDRLVLAGDPAGETFEPTFTFHGFRYAEISGWPGELAAEDLEAVVVHSALRRTGWFECSHAGVNQLISNSLWSQRGNFLSVPTDCPQRDERLGWTGDIAAYAATAAFQHDVGDFLHGWLLDLGQEARMNPHGIVPFVVPDLLKPGLGAGDPAAADEGWGTPTAIWGDAAVWVAEALWTAYGDLDRLRAHYPAMVRHLDSVDRALSPSGLWDTGFQFGDWLDPDAPPEAADRAKADKGVVATACLVRSARFAAQAARLLGEEVDARRWQGLAERTLAAFTTAYVHENGTITSDCATVYALAIAFDLLDAGTRPRAAARLAEVVAEAGHRVSTGFAGTPFVTWALSETGHVEEAYRLLLEEGCPSWLYPVSMGATTIWERWDSMLPDGSINPGEMTSFNHYALGAVADWVYQVVLGVRPAAPGYRRIRIQPVPGPGIEWAEGAHDSAAGRIEVSWEHSADGLRGTATIPEGAEAEIVLPDGRARTVGPGRHSF | 0.075 | 0.137 | 0.000 | 14 | 59 | 27 | 31 | 45 | 24 | 0.19
2 | 1007 (protein, listed as Modestobacter marinus) MSDPTVTVVRLRTDDDSGLTATANATPRLSWSLAADRSGVLQRGYEVQVAPDPGFADPVSSGEVDSDVVVDHDWPAAPLTSRQVAYWRVRVRTDQGWTAWGEPACVEAALLEDADWTARPVFLAGDRGRDGVGPAPLLRREFELPAEPVSARLYLTALGVHRTTLNGRPVGDELLEPGWTSYRDRLLYATHDVTALLRAGRNVLAGSVGDGWFRGNLGWDRLRDFYGDASALLAQLEVRCADGSTVTVSTDEHWRGGYGAVRAADLYDGCDIDLREEPVGWAEAGFDDAGWEPVGTLPLPAGLSQRALPPVRVLQEIEPQVSELSDGTLAVDAGQNVTGWLRLRVTGPSGARVTVRHAEVLDEKGRLVTTLLRSARATDTVVLAGGTADLEPEFTFHGFRYAEVEVPPGVTVDAVRVAVVASDLRRTGQFSCSNPRVDQLFSNVIWSQRDNFLSIPTDCPQRDERLGWTGDIMAFAPTAAANFDSRAFLDSWLTDVGIEQLPSGGVPMVVPNCLTGEFPSPLPQADGAAGWADAVTVVPAALFRAHGSRDLLRRHVGSMQRWVDYVAGLLAEDGTWSGYLQLGDWLDPNAPPERPFEAVTDRDYVATVFVAHSARLLAATCRELGRGPDADRYAALGDRVAQAAWAKWADLAPTTQTGCALAIVFGSAPDAELPALGDALAGLVRASGGRIGTGFLGTPFVLPALTATGHLAEAYQLLLNEECPGWLYQIRHGATTMWERWDGILADGSVHPGQMADGSTMSSFNHYAYGAVASWLYESVAGLSPAAPGYREVLVAPQPGGGLTRAAASIETEYGPASVGWSTDGATLTVDVTLPPGTTGRFAVPAGWSPQQPVALLGSGQHTLLLTGAGA | 0.104 | 0.043 | 0.009 | 8 | 62 | 30 | 24 | 49 | 27 | 0.19
3 | 1075 (protein, listed as Asticcacaulis sp.) MTRLNRRHFLAASGLAATVAPTMSRSKTLAKTALGVTDLRAEQSENLLGTQAREPRLSWRLTGTERGIMQAGYRLRAGSKPGTADLWDSGNIASDACFDIPYKGKPLNAMQRVWWTVEVRDAKGRTATSAPAWFETGLLAPGDWKAQWIVAEDALAEGDRKAGLQWIWSEKALDNRLHAFRLDFDVPANLASSEVLIAGKDWIRGVWANGEQLPTPDQLVPNWGTLVPVPAKLKPGKNSVCVLVQAETTGFFPVDGGAFAALIRLRLSDGTIKRLVSDTNWKVRPLPPEAWTTADFDASGWVRAQKSGADAQNDPRPAEPAMLLRKAFTPAKKVVNARLYATALGAYEARLNGQPVSTAKMAPEISVTKDHIYYQTYDVTKLIRAGDNALGVVMGDGFYASAFGWRLERYGFGPAPRRLLAQLRLDYADGTSEWIVTDDSWRIGQSPIVTSEIYDGEVFDARLKTDGWDKTGFNAARWPAVRLGQAPHTKIVAQTGPLLVPVSKRRGTITQPKPGIYVIDFGQNFAGWARLNVKGTSGHTVTLKFAEYLKADGEVDQANLRMAKCRDIYTLRGDAGGETFEPSFTYHGFRYVQVENFPGVPTPADIEGIVVTSYCRETGRMTFDDPIIQKFWQNSVWSQRSNFFMVPTDCPQRDERMGWMGDIQVFLDAATFNMECDPFIRRYLDEVRASQTAEGAFPIVCPQPESFPEVTTAGWSEAGVILPWTLWRRYGDTAVIDENWVAMTKWMDYLFKYNPDYVWRKERGLDLGDWLSVDAVKPDDETTPRILCATGYWAYCADLMTQMAAATGREAEAAKYREVRAKIGAAFAKEFVDKDGKAGNGSQTSQILALYFNLVPAERRAAAGEILAKEIRGRGMKLSTGFLGTPYLLDVLADTGHLEEVSGLLKQREKPSWGYMPLKGATTMWERWDGDTGDLAMNSYNHYAYGAVCGFMYRRLAGLAPAAPGFRKMTVEPIYLPHVGKVTANYESCLGTMAGAVTGNASGLKTYDLTVPPNAVAEVILPDGAWREGGKALTGHADIRALRRDSGKVRFEVGSGSYRFKI | 0.043 | 0.000 | 0.000 | 9 | 61 | 30 | 26 | 47 | 27 | 0.18
4 | 1055 (protein, alpha proteobacterium) MRKAMILLTACLLSGTSALAADTLRDGFQTPPDSAKPRVWWHWLGNNVTADGIDKDLAWMRRVGIGGFQLFSGNLETPLLVDKPVVVFSPEWRAMVRHAAERADALGLEMTMAASAGWSETGGPWVKPEQAMKKLVWSETVITGAKRFQGRLPSPPTGNGPFQDMPMPPELRLPPPPPVPGARPRPPAAAHGPSPSYYADVAVVAYRLPDAVVPLGSLKPRISSSAGDAAILSDGRYDAPLRLEQKTPDGQLAWVEYTFDKPVSLPAVTLAATIEDPLNALSPSGVVEVADENGTFRDLVRVAPQEPVAFPAAAPVRTVALPEASSRRWRFRLDPIPPQALALPGMPQQTVHAVTELRFETEAMVDRWQAKAAYDTMRSYDTGPQPVRPVPARDQVVNLTARIGADGTLDWTPPPGRWQVLRIGYSLTGAKNHPADPEGTGFEVDKLDAAAVRAYLEGYLGPIDQALGDLRGAKGLKNLLTDSWEAGQANWTPALPAEFKRRRGYDLTPWLPVLTGRVVGSAADSERFLWDFRRTIADLLAEAHYKTIRDFAHEKGLGYYGEAMGTRLPTTGDGLLNKRYTDIPMGEFWQMPPGAPSDPAHTSDIAEAASAAHFYGQNLVAAEAFTALPFMPPFTATPAALKPFADRFLARGVNRFVIHTSVHQPSDDLRPGITLGPFGQYFTRHETWAEQAGAWMSYLSRSSYLQQQGRHVADIAWFVGEGGAISAPDPDRLSPALPKGYRLDFVARDAVTELLSVKDGHLLAPSGVVYRLLVVPPDARSGDLKLSLAVLRRLRDLLNQGAAVLAPRPTGSTSLSDDPAQVAALIGELWGVDTPIPRSIGKGRLYPAPDIAAALADRGVAPDLTMAGAMDADIVWSHRRTDDADIWFVANQKDRAESVTLSLRGDGRDVSLWHADSGAVEPAPFRQEAGRTSVPLTLSPNQAIFIVQRGSAPATARDVATPVEAESLALSGVWTLFFPKGQAMPDSVPLPKLGLWNDMSDPAVRHFSGTATYATEVKLPAAWAGKPVWIDLGAVHEVATVRVNGTEAGIAWKQPYRIDVGPLLKAGTNKLEVAVSNLWPNRIVGDAGGAGGVRVTTNTHPLLHPDTKARLLPSGLAGPVRLVRMELPGGNG | 0.019 | 0.000 | 0.000 | 7 | 62 | 31 | 25 | 48 | 27 | 0.19
